# Measured values as given in the supplement of paper PMC5998384.
# Assays:
# [1] = test system: HeLa Kyoto; test: solubility in G1/S (NP-40 vs SDS abundance) (log2 ratio); higher = more soluble; details: cell cycle stage: G1/S
# [2] = test system: HeLa Kyoto; test: melting temperature (median over replicates), in situ; higher = more thermally stable
# [3] = test system: HeLa Kyoto; test: solubility change mitosis vs G1/S (difference of NP-40 vs SDS log2 ratios) (log2 ratio difference); higher = more soluble in mitosis
# [4] = test system: HeLa Kyoto; test: thermal stability score vs G1/S (z-score of summed log2 fold changes over temperatures); higher = more thermally stable than in G1/S
# [5] = cell cycle stage: early G1 (4.5 h after nocodazole release)
# 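Wherever melting temperature (median over replicates), in situ is given: HeLa Kyoto cells synchronized by double thymidine or nocodazole block, proteins quantified by TMT10plex mass spectrometry, three independent biological replicates.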
# 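Wherever solubility change mitosis vs G1/S (difference of NP-40 vs SDS log2 ratios) is given: synchronized HeLa Kyoto cells (double thymidine block for G1/S, nocodazole release for mitosis), protein amounts in NP-40 versus SDS lysates quantified by mass spectrometry, three biological replicates.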
# 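Wherever solubility in G1/S (NP-40 vs SDS abundance) is given: HeLa Kyoto cells arrested at G1/S by double thymidine block, proteins quantified by TMT10plex mass spectrometry in mild NP-40 versus SDS extracts, three biological replicates.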
# 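Wherever thermal stability score vs G1/S (z-score of summed log2 fold changes over temperatures) is given: synchronized HeLa Kyoto cells, proteins quantified by TMT10plex mass spectrometry, three biological replicates, mitosis taken 0.5 h after nocodazole release, G1/S directly after double thymidine block.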
Sequence,solubility in G1/S (log2) [1],melting temperature ([2]; cell cycle stage: G1/S) [°C],melting temperature ([2]; cell cycle stage: mitosis) [°C],solubility change mitosis (log2) [3],"thermal stability score [4, 5]",thermal stability score ([4]; cell cycle stage: mitosis)
MAALAPLPPLPAQFKSIQHHLRTAQEHDKRDPVVAYYCRLYAMQTGMKIDSKTPECRKFLSKLMDQLEALKKQLGDNEAITQEIVGCAHLENYALKMFLYADNEDRAGRFHKNMIKSFYTASLLIDVITVFGELTDENVKHRKYARWKATYIHNCLKNGETPQAGPVGIEEDNDIEENEDAGAASLPTQPTQPSSSSTYDPSNMPSGNYTGIQIPPGAHAPANTPAEVPHSTGVASNTIQPTPQTIPAIDPALFNTISQGDVRLTPEDFARAQKYCKYAGSALQYEDVSTAVQNLQKALKLLTTGRE [VTA1],0.0799,50.9,50.4,0.325,-1.99,-2.34
MAALEEEFTLSSVVLSAGPEGLLGVEQSDKTDQFLVTDSGRTVILYKVSDQKPLGSWSVKQGQIITCPAVCNFQTGEYVVVHDNKVLRIWNNEDVNLDKVFKATLSAEVYRILSVQGTEPLVLFKEGAVRGLEALLADPQQKIETVISDEEVIKWTKFFVVFRHPVLIFITEKHGNYFAYVQMFNSRILTKYTLLLGQDENSVIKSFTASVDRKFISLMSLSSDGCIYETLIPIRPADPEKNQSLVKSLLLKAVVSGNARNGVALTALDQDHVAVLGSPLAASKECLSVWNIKFQTLQTSKELPQGTSGQLWYYGEHLFMLHGKSLTVIPYKCEVSSLAGALGKLKHSQDPGTHVVSHFVNWETPQGCGLGFQNSEQSRRILRRRKIEVSLQPEVPPSKQLLSTIMKDSEKHIEVEVRKFLALKQTPDFHTVIGDTVTGLLERCKAEPSFYPRNCLMQLIQTHVLSYSLCPDLMEIALKKKDVQLLQLCLQQFPDIPESVTCACLKIFLSIGDDSLQETDVNMESVFDYSINSVHDEKMEEQTEILQNGFNPEEDKCNNCDQELNKKPQDETKESTSCPVVQKRAALLNAILHSAYSETFLLPHLKDIPAQHITLFLKYLYFLYLKCSENATMTLPGIHPPTLNQIMDWICLLLDANFTVVVMMPEAKRLLINLYKLVKSQISVYSELNKIEVSFRELQKLNQEKNNRGLYSIEVLELF [NOL11],-0.963,55.1,52.9,0.471,-2.5,-6.66
MAALGEPVRLERDICRAIELLEKLQRSGEVPPQKLQALQRVLQSEFCNAVREVYEHVYETVDISSSPEVRANATAKATVAAFAASEGHSHPRVVELPKTEEGLGFNIMGGKEQNSPIYISRIIPGGIADRHGGLKRGDQLLSVNGVSVEGEHHEKAVELLKAAQGKVKLVVRYTPKVLEEMESRFEKMRSAKRRQQT [LIN7C],0.382,50.1,51.5,0.202,-0.659,-0.713
MAALLRRLLQRERPSAASGRPVGRREANLGTDAGVAVRVRFAPSPTGFLHLGGLRTALYNYIFAKKYQGSFILRLEDTDQTRVVPGAAENIEDMLEWAGIPPDESPRRGGPAGPYQQSQRLELYAQATEALLKTGAAYPCFCSPQRLELLKKEALRNHQTPRYDNRCRNMSQEQVAQKLAKDPKPAIRFRLEQVVPAFQDLVYGWNRHEVASVEGDPVIMKSDGFPTYHLACVVDDHHMGISHVLRGSEWLVSTAKHLLLYQALGWQPPHFAHLPLLLNRDGSKLSKRQGDVFLEHFAADGFLPDSLLDIITNCGSGFAENQMGRTLPELITQFNLTQVTCHSALLDLEKLPEFNRLHLQRLVSNESQRRQLVGKLQVLVEEAFGCQLQNRDVLNPVYVERILLLRQGHICRLQDLVSPVYSYLWTRPAVGRAQLDAISEKVDVIAKRVLGLLERSSMSLTQDMLNGELKKLSEGLEGTKYSNVMKLLRMALSGQQQGPPVAEMMLALGPKEVRERIQKVVSS [EARS2],0.363,49.2,49.5,-0.0812,-0.077,1.7
MAALRVLLSCVRGPLRPPVRCPAWRPFASGANFEYIIAEKRGKNNTVGLIQLNRPKALNALCDGLIDELNQALKTFEEDPAVGAIVLTGGDKAFAAGADIKEMQNLSFQDCYSSKFLKHWDHLTQVKKPVIAAVNGYAFGGGCELAMMCDIIYAGEKAQFAQPEILIGTIPGAGGTQRLTRAVGKSLAMEMVLTGDRISAQDAKQAGLVSKICPVETLVEEAIQCAEKIASNSKIVVAMAKESVNAAFEMTLTEGSKLEKKLFYSTFATDDRKEGMTAFVEKRKANFKDQ [ECHS1],0.518,52.8,53.3,0.0593,-1.11,-1.89
MAAMASLGALALLLLSSLSRCSAEACLEPQITPSYYTTSDAVISTETVFIVEISLTCKNRVQNMALYADVGGKQFPVTRGQDVGRYQVSWSLDHKSAHAGTYEVRFFDEESYSLLRKAQRNNEDISIIPPLFTVSVDHRGTWNGPWVSTEVLAAAIGLVIYYLAFSAKSHIQA [SSR4],0.0435,55.5,54.9,0.0331,1.62,-0.139
MAAMAVALRGLGGRFRWRTQAVAGGVRGAARGAAAGQRDYDLLVVGGGSGGLACAKEAAQLGRKVAVVDYVEPSPQGTRWGLGGTCVNVGCIPKKLMHQAALLGGLIQDAPNYGWEVAQPVPHDWRKMAEAVQNHVKSLNWGHRVQLQDRKVKYFNIKASFVDEHTVCGVAKGGKEILLSADHIIIATGGRPRYPTHIEGALEYGITSDDIFWLKESPGKTLVVGASYVALECAGFLTGIGLDTTIMMRSIPLRGFDQQMSSMVIEHMASHGTRFLRGCAPSRVRRLPDGQLQVTWEDSTTGKEDTGTFDTVLWAIGRVPDTRSLNLEKAGVDTSPDTQKILVDSREATSVPHIYAIGDVVEGRPELTPIAIMAGRLLVQRLFGGSSDLMDYDNVPTTVFTPLEYGCVGLSEEEAVARHGQEHVEVYHAHYKPLEFTVAGRDASQCYVKMVCLREPPQLVLGLHFLGPNAGEVTQGFALGIKCGASYAQVMRTVGIHPTCSEEVVKLRISKRSGLDPTVTGCUG [TXNRD2],0.0295,53.6,53,-0.16,2.59,-1.79
MAANKPKGQNSLALHKVIMVGSGGVGKSALTLQFMYDEFVEDYEPTKADSYRKKVVLDGEEVQIDILDTAGQEDYAAIRDNYFRSGEGFLCVFSITEMESFAATADFREQILRVKEDENVPFLLVGNKSDLEDKRQVSVEEAKNRAEQWNVNYVETSAKTRANVDKVFFDLMREIRARKMEDSKEKNGKKKRKSLAKRIRERCCIL [RALA],0.0126,58.9,57.4,-0.0413,-3.71,-3.15
MAAPAVSGLSRQVRCFSTSVVRPFAKLVRPPVQVYGIEGRYATALYSAASKQNKLEQVEKELLRVAQILKEPKVAASVLNPYVKRSIKVKSLNDITAKERFSPLTTNLINLLAENGRLSNTQGVVSAFSTMMSVHRGEVPCTVTSASPLEEATLSELKTVLKSFLSQGQVLKLEAKTDPSILGGMIVRIGEKYVDMSVKTKIQKLGRAMREIV [ATP5O],0.365,53.4,53.2,0.116,-2.17,-2.27
MAAPGGRGRSLSGLLPAQTSLEYALLDAVTQQEKDSLVYQYLQKVDGWEQDLSVPEFPEGLEWLNTEEPISVYKDLCGKIVVLDFFTYCCINCIHLLPDLHALEHTYSDKDGLLIIGVHSAKFPNEKVLDNIKSAVLRYNITHPMVNDADASLWQELEVSCWPTLVILGPRGNMLFSLIGEGHKDKLFLYTSIALKYYKDRGQIRDNKIGIKLYKDSLPPSPLLFPGKVTVDQVTDRLVIADTGHHRILVVWKNGQIQYSIGGPNPGRKDGIFSESTFNSPQGVAIMNNIIYVADTENHLIRKIDLEAEKVSTVAGIGIQGTDKEGGAKGEQQPISSPWDVVFGTSGSEVQRGDILWIAMAGTHQIWALLLDSGKLPKKNELTKGTCLRFAGSGNEENRNNAYPHKAGFAQPSGLSLASEDPWSCLFVADSESSTVRTVSLKDGAVKHLVGGERDPMNLFAFGDVDGVGINAKLQHPLGVTWDKKRNLLYVADSYNHKIKVVDPKTKNCTTLAGTGDTNNVTSSSFTESTFNEPGGLCIGENGELLYVADTNNHQIKVMDLETKMVSVLPIFRSENAVVDGPFLVEKQKTLPKLPKSAPSIRLSPVTACAGQTLQFKLRLDLPSGSKLTEGVSSCWFLTAEGNEWLLQGQIAAGDIENISSQPTISLQIPDDCLSLEAIVSVSVFLYYCSADSSACMMKAILFSQPLQITDTQQGCIAPVELRYVF [NHLRC2],0.0639,52,52.1,-0.199,0.332,-0.145
MAAPLELSCWGGGWGLPSVHSESLVVMAYAKFSGAPLKVNVIDNTWRGSRGDVPILTTEDDMVSQPAKILNFLRKQKYNADYELSAKQGADTLAYIALLEEKLLPAVLHTFWVESDNYFTVTKPWFASQIPFPLSLILPGRMSKGALNRILLTRGQPPLYHLREVEAQIYRDAKECLNLLSNRLGTSQFFFGDTPSTLDAYVFGFLAPLYKVRFPKVQLQEHLKQLSNLCRFCDDILSSYFRLSLGGISPAGQETVDANLQKLTQLVNKESNLIEKMDDNLRQSPQLPPRKLPTLKLTPAEEENNSFQRLSP [MTX3],0.0969,51.4,53,0.0458,-1.88,-1.18
MAAPMLRWGCRGRRWAFARVDGGSCHRRGAPTGSTSNQIRGESSVAQQPLHTAQKTRKGEHKWAAVVGLEIHAQISSNSKLFSGSQVRFSAPPNSLVSFFDASLPGTLPVLNRRCVEAAVMTGLALNCHINKKSLFDRKHYFYADLPAGYQITQQRLPIAVNGSLIYGVCAGKKQSQVIPKTVRIKQIQLEQDSGKSLHDNLRSQTLIDLNRAGVGLLEVVLEPDMSCGEEAATAVRELQLILQALGTSQANMAEGQLRVDANISVHHPGEPLGVRTEVKNLNSIRFLAKAIDYEIQRQINELENGGEILNETRSFHHKLGCTMSMRDKEGKQDYRFMPEPNLPPLVLYDATSLPAGADPQQVINIDQIRETLPELPSVTREKLVQQYGMLLEHSFTLLNEVGLLEFFQNVIKETRAEPKKVTSWVLNTFLGYLKQQNLAVSESPVTPSALAELLDLLDSRTISSSAAKQVFEELWKREGKTPGQIVSEKQLELMQDQGALEQLCHSVMEAHPQVVMDVKNRNPRAINKLIGLVRKATQSRADPVMIKEILEKKLSL [GATB],0.473,48.3,48.7,-0.154,-0.148,0.829
MAAPPARADADPSPTSPPTARDTPGRQAEKSETACEDRSNAESLDRLLPPVGTGRSPRKRTTSQCKSEPPLLRTSKRTIYTAGRPPWYNEHGTQSKEAFAIGLGGGSASGKTTVARMIIEALDVPWVVLLSMDSFYKVLTEQQQEQAAHNNFNFDHPDAFDFDLIISTLKKLKQGKSVKVPIYDFTTHSRKKDWKTLYGANVIIFEGIMAFADKTLLELLDMKIFVDTDSDIRLVRRLRRDISERGRDIEGVIKQYNKFVKPSFDQYIQPTMRLADIVVPRGSGNTVAIDLIVQHVHSQLEERELSVRAALASAHQCHPLPRTLSVLKSTPQVRGMHTIIRDKETSRDEFIFYSKRLMRLLIEHALSFLPFQDCVVQTPQGQDYAGKCYAGKQITGVSILRAGETMEPALRAVCKDVRIGTILIQTNQLTGEPELHYLRLPKDISDDHVILMDCTVSTGAAAMMAVRVLLDHDVPEDKIFLLSLLMAEMGVHSVAYAFPRVRIITTAVDKRVNDLFRIIPGIGNFGDRYFGTDAVPDGSDEEEVAYTG [UCKL1],-0.0507,51.6,51.6,0.0371,-1.2,-0.843
MAAPPEPGEPEERKSLKLLGFLDVENTPCARHSILYGSLGSVVAGFGHFLFTSRIRRSCDVGVGGFILVTLGCWFHCRYNYAKQRIQERIAREEIKKKILYEGTHLDPERKHNGSSSN [COX20],0.0379,55.3,58,-0.0179,-0.338,-1.53
